Laboratory results taken from patent US11969458B2, “Formula of neuregulin preparation” (Zensun (Shanghai) Science & Technology, Co., Ltd., priority 2014, dated 2024).

Assays:
[1] = Forced degradation study of rhNRG-1 (oxidation with H2O2), RP-HPLC; format: physicochemical; conditions: for rhNRG-1 conc.: 0.06% H2O2, RT
Protocol: The API solution was forced to degrade as follow (Table 12):
The samples collected at time point was analyzed by the RP-HPLC.

[2] = pH-stability profile of rhNRG-1 in pH 3 to 10 buffers and DI-water (RP-HPLC, SDS-PAGE); format: physicochemical; conditions: for T90: time to degrade 10% of the initial concentration; for Rate of degradation: zero order, linear regression slope
Protocol: 2.1 Develop a RP-HPLC Method to Determine the Purity of rhNRG-1 Drug Substance.
RhNRG-1, batch 201204001, which contains 1.24 mg/mL rhNRG-1, 20 mM phosphate buffer and 0.5M NaCl, pH 5.5 (“API”) was used for the preparation of standard solution for all HPLC analysis.
In a 15 mL plastic tube, add the API and DI-water or a New Buffer. Mix into a solution containing 0.25 mg/mL rhNRG-1, 10 mM New Buffer, 4 mM phosphate (from the API) and 0.1 M NaCl (from the API).
For 40° C., test by SDS-PAGE after 10 days. Destain I (45% water, 45% methanol, 10% acetic acid, freshly made); 0.1% Coomasic Blue stain; The running gel (12%-15%) serves to separate individual polypeptides into discrete bands.
For 40° C., remove 150 μL and test by HPLC after 28.5, 49 and 77 hr.
For each Cone-vs-time profile, a linear regression analysis was performed and the slope of the regression equation was used to represent the rate of degradation in mg/mL/hr assuming zero order kinetics.
At each pH (3 to 8) and temperature, the estimated degradation rate and T90 (time to degrade 10% of the initial concentration or 0.025 mg/mL) are provided as follow (Table 10): […]

[3] = pH 5.63 (No New Buffer added), 40° C.
[4] = pH 5.63 (No New Buffer added), 60° C.

B1: rhNRG-1: proteins or peptides which consist of amino acid sequence of SEQ ID NO: 2 (protein, listed as Homo sapiens)
chain: SHLVKCAEKEKTFCVNGGECFMVKDLSNPSRYLCKCPNEFTGDRCQNYVMASFYKAEELYQ
- sensitivity to oxidation ([1]; H2O2 exposure): very sensitive to peroxide and prone to oxidation
- rhNRG-1 conc. ([1]; Oxidation exposure 0.3 hours): 0.24 mg/mL
- rhNRG-1 conc. ([1]; Oxidation exposure 2.4 hours): 0.15 mg/mL
- rhNRG-1 conc. ([1]; Oxidation exposure 4.5 hours): 0.10 mg/mL
- rhNRG-1 conc. ([1]; Oxidation exposure 7.1 hours): 0.07 mg/mL
- T90 at the lower pH relative to the one in its original buffer ([2]; lower pH (3.2) vs original buffer (pH 5.5, as is)): about 20 ×
- T90 at the lower pH relative to the one at pH 4.2 ([2]; lower pH (3.2) vs pH 4.2): about 2 ×
- pH of the best stability observed ([2]; pH 3 to 8 study, lowest pH): 3.2
- stability in solution depending on pH ([2]; pH 3 to 10): more stable in acid solution (PH 3.0 to 7.0) than in basic solution (PH 8.0 to 10.0)
- % over initial conc. ([2]; pH 3.19 (Sodium phosphate), 40° C., 28.5 hr): 97%
- % over initial conc. ([2]; pH 3.19 (Sodium phosphate), 40° C., 49 hr): 97%
- % over initial conc. ([2]; pH 3.19 (Sodium phosphate), 40° C., 77 hr): 96%
- % over initial conc. ([2]; pH 3.19 (Sodium phosphate), 60° C., 7.5 hr): 98%
- % over initial conc. ([2]; pH 3.19 (Sodium phosphate), 60° C., 24 hr): 93%
- % over initial conc. ([2]; pH 3.19 (Sodium phosphate), 60° C., 48 hr): 89%
- % over initial conc. ([2]; pH 3.19 (Sodium phosphate), 60° C., 65 hr): 82%
- % over initial conc. ([2]; pH 3.19 (Sodium phosphate), 60° C., 77 hr): 72%
- Initial Conc ([2]; pH 3.19 (Sodium phosphate)): 0.241 mg/mL
- T90 ([2]; pH 3.19, 40° C.): 10.4 days
- Rate of degradation ([2]; pH 3.19, 40° C.): 0.0001 mg/mL/h
- T90 ([2]; pH 3.19, 60° C.): 1.7 days
- Rate of degradation ([2]; pH 3.19, 60° C.): 0.0006 mg/mL/h
- % over initial conc. ([2]; pH 4.17 (Sodium acetate), 40° C., 28.5 hr): 97%
- % over initial conc. ([2]; pH 4.17 (Sodium acetate), 40° C., 49 hr): 97%
- % over initial conc. ([2]; pH 4.17 (Sodium acetate), 40° C., 77 hr): 93%
- % over initial conc. ([2]; pH 4.17 (Sodium acetate), 60° C., 7.5 hr): 99%
- % over initial conc. ([2]; pH 4.17 (Sodium acetate), 60° C., 24 hr): 93%
- % over initial conc. ([2]; pH 4.17 (Sodium acetate), 60° C., 48 hr): 91%
- % over initial conc. ([2]; pH 4.17 (Sodium acetate), 60° C., 65 hr): 84%
- % over initial conc. ([2]; pH 4.17 (Sodium acetate), 60° C., 77 hr): 78%
- Initial Conc ([2]; pH 4.17 (Sodium acetate)): 0.247 mg/mL
- T90 ([2]; pH 4.17, 40° C.): 5.2 days
- Rate of degradation ([2]; pH 4.17, 40° C.): 0.0002 mg/mL/h
- T90 ([2]; pH 4.17, 60° C.): 1.7 days
- Rate of degradation ([2]; pH 4.17, 60° C.): 0.0006 mg/mL/h
- % over initial conc. ([2]; pH 5.08 (Sodium acetate), 40° C., 28.5 hr): 94%
- % over initial conc. ([2]; pH 5.08 (Sodium acetate), 40° C., 49 hr): 94%
- % over initial conc. ([2]; pH 5.08 (Sodium acetate), 40° C., 77 hr): 86%
- % over initial conc. ([2]; pH 5.08 (Sodium acetate), 60° C., 7.5 hr): 98%
- % over initial conc. ([2]; pH 5.08 (Sodium acetate), 60° C., 24 hr): 92%
- % over initial conc. ([2]; pH 5.08 (Sodium acetate), 60° C., 48 hr): 93%
- % over initial conc. ([2]; pH 5.08 (Sodium acetate), 60° C., 65 hr): 82%
- % over initial conc. ([2]; pH 5.08 (Sodium acetate), 60° C., 77 hr): 82%
- Initial Conc ([2]; pH 5.08 (Sodium acetate)): 0.242 mg/mL
- T90 ([2]; pH 5.08, 40° C.): 2.6 days
- Rate of degradation ([2]; pH 5.08, 40° C.): 0.0004 mg/mL/h
- T90 ([2]; pH 5.08, 60° C.): 1.7 days
- Rate of degradation ([2]; pH 5.08, 60° C.): 0.0006 mg/mL/h
- % over initial conc. ([2]; pH 5.47 (Histidine), 60° C., 7.5 hr): 95%
- % over initial conc. ([2]; pH 5.47 (Histidine), 60° C., 24 hr): 92%
- % over initial conc. ([2]; pH 5.47 (Histidine), 60° C., 48 hr): 86%
- % over initial conc. ([2]; pH 5.47 (Histidine), 60° C., 65 hr): 79%
- % over initial conc. ([2]; pH 5.47 (Histidine), 60° C., 77 hr): 79%
- Initial Conc ([2]; pH 5.47 (Histidine)): 0.248 mg/mL
- T90 ([2]; pH 5.47, 60° C.): 1.5 days
- Rate of degradation ([2]; pH 5.47, 60° C.): 0.0007 mg/mL/h
- % over initial conc. ([2]; pH 5.63 (No New Buffer added), 40° C., 28.5 hr): 92%
- % over initial conc. ([2]; pH 5.63 (No New Buffer added), 40° C., 49 hr): 91%
- % over initial conc. ([2]; pH 5.63 (No New Buffer added), 40° C., 77 hr): 38%
- T90 [2, 3]: 0.5 days
- Rate of degradation [2, 3]: 0.0019 mg/mL/h
- % over initial conc. ([2]; pH 5.63 (No New Buffer added), 60° C., 7.5 hr): 95%
- % over initial conc. ([2]; pH 5.63 (No New Buffer added), 60° C., 24 hr): 84%
- % over initial conc. ([2]; pH 5.63 (No New Buffer added), 60° C., 48 hr): 82%
- % over initial conc. ([2]; pH 5.63 (No New Buffer added), 60° C., 65 hr): 69%
- % over initial conc. ([2]; pH 5.63 (No New Buffer added), 60° C., 77 hr): 64%
- T90 [2, 4]: 1.0 days
- Rate of degradation [2, 4]: 0.001 mg/mL/h
- Initial Conc ([2]; pH 5.63 (No New Buffer added)): 0.251 mg/mL
- % over initial conc. ([2]; pH 6.02 (Sodium citrate), 40° C., 28.5 hr): 94%
- % over initial conc. ([2]; pH 6.02 (Sodium citrate), 40° C., 49 hr): 94%
- % over initial conc. ([2]; pH 6.02 (Sodium citrate), 40° C., 77 hr): 86%
- % over initial conc. ([2]; pH 6.02 (Sodium citrate), 60° C., 7.5 hr): 95%
- % over initial conc. ([2]; pH 6.02 (Sodium citrate), 60° C., 24 hr): 88%
- % over initial conc. ([2]; pH 6.02 (Sodium citrate), 60° C., 48 hr): 85%
- % over initial conc. ([2]; pH 6.02 (Sodium citrate), 60° C., 65 hr): 72%
- % over initial conc. ([2]; pH 6.02 (Sodium citrate), 60° C., 77 hr): 72%
- Initial Conc ([2]; pH 6.02 (Sodium citrate)): 0.251 mg/mL
- T90 ([2]; pH 6.02, 40° C.): 2.6 days
- Rate of degradation ([2]; pH 6.02, 40° C.): 0.0004 mg/mL/h
- T90 ([2]; pH 6.02, 60° C.): 1.2 days
- Rate of degradation ([2]; pH 6.02, 60° C.): 0.0009 mg/mL/h
- % over initial conc. ([2]; pH 7.00 (Sodium phosphate), 40° C., 28.5 hr): 92%
- % over initial conc. ([2]; pH 7.00 (Sodium phosphate), 40° C., 49 hr): 87%
- % over initial conc. ([2]; pH 7.00 (Sodium phosphate), 40° C., 77 hr): 82%
- % over initial conc. ([2]; pH 7.00 (Sodium phosphate), 60° C., 7.5 hr): 90%
- % over initial conc. ([2]; pH 7.00 (Sodium phosphate), 60° C., 24 hr): 76%
- % over initial conc. ([2]; pH 7.00 (Sodium phosphate), 60° C., 48 hr): 65%
- Initial Conc ([2]; pH 7.00 (Sodium phosphate)): 0.251 mg/mL
- T90 ([2]; pH 7.00, 40° C.): 1.7 days
- Rate of degradation ([2]; pH 7.00, 40° C.): 0.0006 mg/mL/h
- T90 ([2]; pH 7.00, 60° C.): 0.7 days
- Rate of degradation ([2]; pH 7.00, 60° C.): 0.0015 mg/mL/h
- % over initial conc. ([2]; pH 8.07 (Sodium bicarbonate), 40° C., 28.5 hr): 89%
- % over initial conc. ([2]; pH 8.07 (Sodium bicarbonate), 40° C., 49 hr): 83%
- % over initial conc. ([2]; pH 8.07 (Sodium bicarbonate), 40° C., 77 hr): 68%
- % over initial conc. ([2]; pH 8.07 (Sodium bicarbonate), 60° C., 7.5 hr): 68%
- % over initial conc. ([2]; pH 8.07 (Sodium bicarbonate), 60° C., 24 hr): 4%
- Initial Conc ([2]; pH 8.07 (Sodium bicarbonate)): 0.253 mg/mL
- T90 ([2]; pH 8.07, 40° C.): 1.0 days
- Rate of degradation ([2]; pH 8.07, 40° C.): 0.001 mg/mL/h
- T90 ([2]; pH 8.07, 60° C.): 0.2 days
- Rate of degradation ([2]; pH 8.07, 60° C.): 0.0061 mg/mL/h
